Literature values as cited in PMC5956149.

Target: CheA (Escherichia coli) (UniProt P07363)
Conditions: cited from earlier work

For CheA (from UniProt P07363), the Kd is given as 0.4 µM.
